Experimental data published in the supplement of paper PMC7125110.
± gives the standard error. For some of these results: Variants at the floor of the assay were thinned out.

B1: glmS ribozyme (parent)
chain: AUAAAAGCGCCAGAACUACAGAAAUGUAGUUGACGAGGAGGAGGUUUAUCGAAUUUUCGGCGGAUGCCUCCAAA

Legend:
Conditions in all cases: with glucosamine-6-phosphate
glucosamine-6-phosphate [1] = variants of: B1; assay: kcat; higher = faster cleavage; RNA array
Method in brief: (§1)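 kobs was derived by fitting per-tile medians to one- or two-exponential decays after normalising signals to baseline and to non-cleaving reference variants. Those signals came from barcoded ribozyme variants transcribed in situ by E. coli RNA polymerase on sequenced MiSeq chips, followed through a hybridised Cy3 probe at 37 °C and imaged over ~14 h. Glucosamine-6-phosphate (40 μM to 10 mM) in HEPES/KCl/Mg(OAc)2 buffer was flowed in. Weighted Michaelis–Menten fits across concentrations then gave kcat and KM.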

glucosamine-6-phosphate [2] = variants of: B1; assay: KM; higher = weaker cofactor use; RNA array
Method in brief: as §1

glucosamine-6-phosphate [3] = variants of: B1; assay: self-cleavage kobs at 2500 uM GlcN6P; higher = faster cleavage; RNA array
Method in brief: as §1

glucosamine-6-phosphate [4] = variants of: B1; assay: self-cleavage kobs at 10000 uM GlcN6P; higher = faster cleavage; RNA array
Method in brief: as §1

glucosamine-6-phosphate [5] = variants of: B1; assay: self-cleavage kobs at 40 uM GlcN6P; higher = faster cleavage; RNA array
Method in brief: as §1

glucosamine-6-phosphate [6] = variants of: B1; assay: self-cleavage kobs at 160 uM GlcN6P; higher = faster cleavage; RNA array
Method in brief: as §1

glucosamine-6-phosphate [7] = variants of: B1; assay: self-cleavage kobs at 640 uM GlcN6P; higher = faster cleavage; RNA array
Method in brief: as §1

Variant	kcat (glucosamine-6-phosphate [1]) [s⁻¹]	KM (glucosamine-6-phosphate [2]) [µM]	self-cleavage kobs at 2500 uM GlcN6P (glucosamine-6-phosphate [3]) [s⁻¹]	self-cleavage kobs at 10000 uM GlcN6P (glucosamine-6-phosphate [4]) [s⁻¹]	self-cleavage kobs at 40 uM GlcN6P (glucosamine-6-phosphate [5]) [s⁻¹]	self-cleavage kobs at 160 uM GlcN6P (glucosamine-6-phosphate [6]) [s⁻¹]	self-cleavage kobs at 640 uM GlcN6P (glucosamine-6-phosphate [7]) [s⁻¹]
G32U U47C	0.000177 ± 4.1e-05	7840 ± 3400	4.27e-05 ± 1.2e-05	9.94e-05 ± 1.4e-05			
G38U C67A	1.4e-05 ± 1.8e-06						
A42G U56C	0.00693 ± 0.0014	3180 ± 860	0.00317 ± 0.0005	0.00522 ± 0.0008	7.76e-05 ± 1.5e-05	0.000469 ± 8.9e-05	0.00106 ± 0.00018
U54G A64C	0.000177 ± 1.8e-05	2030 ± 590	0.000116 ± 2.4e-05	0.000143 ± 1.8e-05	< 1e-05		3.56e-05 ± 1.3e-05
U31A C67A C68U	6.87e-05 ± 1.5e-05		7.63e-05 ± 1.4e-05	5.53e-05 ± 1.3e-05			0.000122 ± 3.5e-05
U31A C70G	0.000226 ± 2.5e-05	570 ± 170	0.000169 ± 2.4e-05	0.000235 ± 3.2e-05		6.6e-05 ± 1.6e-05	0.000116 ± 1.3e-05
U30A G66U	0.000236 ± 1.9e-05	1720 ± 340	0.000159 ± 1.6e-05	0.000195 ± 1.5e-05			5.93e-05 ± 7.9e-06
U46C U56C	0.000648 ± 3.9e-05	866 ± 190	0.000514 ± 0.00014	0.000596 ± 7.5e-05			0.000246 ± 7.8e-05
A42G G66U	0.00257 ± 0.00027	1900 ± 310	0.00166 ± 0.00027	0.0021 ± 0.00021	5.91e-05 ± 9e-06	0.000171 ± 2.6e-05	0.000688 ± 8.4e-05
U55C U65A	0.00421 ± 0.00073	2040 ± 540	0.00204 ± 0.00038	0.00379 ± 0.00046	0.0001 ± 1.4e-05	0.00028 ± 7.3e-05	0.000826 ± 0.00017
G13C A42C	< 1e-05			< 1e-05	< 1e-05		
C50G A64U	5.29e-05 ± 1.7e-05		5.11e-05 ± 1.7e-05			6.24e-05 ± 1.5e-05	9.1e-05 ± 2.3e-05
A14G C50G	4.1e-05 ± 7.6e-06		4.52e-05 ± 2e-05				
U46C A53U U65G	0.000127 ± 3.1e-05	6880 ± 2800	3.28e-05 ± 1.2e-05	7.63e-05 ± 2.5e-05			
G7A A39U	1.87e-05 ± 1.7e-06	2780 ± 970					
U65C C67A	0.000111 ± 9.5e-06	672 ± 220	7.82e-05 ± 2.1e-05	0.000106 ± 1.6e-05			6e-05 ± 1.4e-05
G13U C70U	0.00213 ± 0.00039	3200 ± 840	0.000792 ± 0.00018	0.00172 ± 0.00026	2.45e-05 ± 1e-05	0.000126 ± 2.3e-05	0.000329 ± 5.2e-05
G40A C67U	0.000237 ± 3.9e-05	964 ± 350	0.000218 ± 2.6e-05	0.000189 ± 2.6e-05		2.41e-05 ± 1.1e-05	9.44e-05 ± 9.9e-06

Variant	kcat (glucosamine-6-phosphate [1]) [s⁻¹]	KM (glucosamine-6-phosphate [2]) [µM]	self-cleavage kobs at 2500 uM GlcN6P (glucosamine-6-phosphate [3]) [s⁻¹]	self-cleavage kobs at 10000 uM GlcN6P (glucosamine-6-phosphate [4]) [s⁻¹]	self-cleavage kobs at 40 uM GlcN6P (glucosamine-6-phosphate [5]) [s⁻¹]	self-cleavage kobs at 160 uM GlcN6P (glucosamine-6-phosphate [6]) [s⁻¹]	self-cleavage kobs at 640 uM GlcN6P (glucosamine-6-phosphate [7]) [s⁻¹]
G37A U45A	0.00537 ± 0.00043	1760 ± 210	0.0027 ± 0.0006	0.00477 ± 0.00049	0.000126 ± 1.4e-05	0.000452 ± 8.9e-05	0.00131 ± 0.00021
A33U U55C	0.000106 ± 1.2e-05	6170 ± 1300	3.12e-05 ± 5.7e-06	6.51e-05 ± 7.8e-06	< 1e-05		
G41C C58U	< 1e-05			< 1e-05	< 1e-05	< 1e-05	
C58G G66A	5.59e-05 ± 5.7e-06		5.32e-05 ± 1.5e-05	5.1e-05 ± 7.9e-06			
A33U U47C	3.28e-05 ± 1.2e-05			3.01e-05 ± 1.1e-05	< 1e-05		
A14U G40U	0.00162 ± 0.0004	4230 ± 1500	0.000535 ± 7.1e-05	0.00123 ± 0.00015	3.43e-05 ± 1.2e-05	6.75e-05 ± 1.2e-05	0.000205 ± 3e-05
U57G C67A	2.87e-05 ± 6.3e-06			2.45e-05 ± 1.2e-05			
A36C C68A	1.33e-05 ± 2.1e-06						
U46G C50U U69A	3.77e-05 ± 1.1e-05			4.11e-05 ± 1.3e-05			
G7C C50G	1.12e-05 ± 2.4e-06						
G40U U65G G66U	3.4e-05 ± 4.8e-06			3.38e-05 ± 1.5e-05	< 1e-05		
G51A	1.01e-05 ± 2.8e-07	965 ± 160					
G40C U56G	0.00124 ± 0.00014	1460 ± 280	0.000869 ± 0.00011	0.00108 ± 9.7e-05	3.52e-05 ± 6.5e-06	0.000146 ± 2.1e-05	0.000333 ± 3.5e-05
A6U U47G	5.58e-05 ± 2.6e-06	564 ± 180	4.79e-05 ± 7.2e-06	5.16e-05 ± 6.8e-06			
A15C U45G	0.000779 ± 0.00013	1570 ± 400	0.000568 ± 8.2e-05	0.000562 ± 0.00014		7.06e-05 ± 1.5e-05	0.000218 ± 2.9e-05
C61G C71A	1.34e-05 ± 3.8e-06						
G35A G37A G44U U49G C67G	< 1e-05		< 1e-05				
